Measurements reported in the supplement of paper PMC9170038.

Test system: K4 kissing-loop RNA reporter
Test: apparent KD of K4 kissing-loop reporter; higher = weaker reporter binding
Details: Eterna round: R107
Protocol: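 RNA-MaP round R107: designed RNA switches with theophylline, tryptophan, arginine or FMN aptamers are transcribed on-chip within common flanks. They are titrated with a labelled K4 kissing-loop RNA reporter in RNA-MaP buffer (100 mM Tris pH 7.5, 80 mM KCl, 4 mM MgCl2), without ligand or with the indicated ligand. Median apparent KD per design.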

[1] = input ligand: theophylline 20 uM
[2] = input ligand: tryptophan 2.4 mM
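Note: bound reporter read as fluorescence of individual clusters on recovered sequencing chips by microscopy, with normalized cluster intensities fitted with a binding model.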

Sequence | apparent KD of K4 kissing-loop reporter (input ligand: FMN 200 uM) [nM] | apparent KD of K4 kissing-loop reporter (input ligand: arginine 13.2 mM) [nM] | apparent KD of K4 kissing-loop reporter (input ligand: none) [nM] | apparent KD of K4 kissing-loop reporter [1] [nM] | apparent KD of K4 kissing-loop reporter [2] [nM]
UUAGCAGUAUACUGCAAGACCUAUACUGAUACCAGAGCCUAUAGGCUCCCUUGGCAGCGGAUCGAGUGAUGUUCGUAAGGUCAUU [AK4.3 SS Theophylline A] | 651 | 667 | 1080 | 682 | 458
AAUAUAGUGAUGUUAUAUAAGAAGGAGUUACGAGGACCGGUACGGCCGCCACUCGAAACGAGUGAGGAUUUGGGAGAUUGGGUUC [SSTryptA.L] | 465 | 539 | 393 | 302 | 283
ACUAGUUAAUCGGCCGCCACUUCUAGUGAUGUUAGAAUUAUCCAGAUUAUCAGCGUAGCACAUUGAAGGACCGGGAUAAGGUGGU [theeternabot_exclusion_KL_Trp_B_2] | 275 | 236 | 269 | 273 | 261
UGUGUUUACCUGACUCAGUGAUGUUGAGAAGGAGCGUGCGAAAGCACAGGUAGGUCGCUCAAUCCUUAAUCAGGUGAGCACUAAA [#SwitchBubble 13 #K4Early] | 394 | 507 | 502 | 447 | 359
CUGGGUUGACGAAAAGUCAACAAAAGAGAAGGAGCGCACGAAAGUGCAGGUAGGUCGCUCAUCCAGUGAUGUUGGAUCAUCCAGA [#SwitchBubble 16 #K4Late] | 345 | 611 | 316 | 646 | 273
ACGACGCAUAGUGAUACCAGCACAAUAUGAGUGAUGUUCAACAUAUAAAUGUAAUAAUUAUGCCCUUGGCAGCACUAUGCGUCAG [KL-SSTheoB1] | 658 | 660 | 793 | 707 | 591
UGAUGUUUAGGUCACCCAGUGAUGUUGGAAGGAGCGUGCGAAAGCACAGGUAGGUCGCCAACCUAAAAGUGACCUGAGCAUCUAA [#SwitchBubble 8 #K4Early] | 496 | 210 | 511 | 427 | 846
GCCGUAGAUUGAAGGAGCGCCUUCUUACCAAGAGUGAUGUUCUUAGGUACCAUGUUCAGUAGGCAGGUAGGUCGCAAUCUACGGC | 499 | 441 | 484 | 647 | 489
UGAUAGGACAGAAGGAGCGGUAGUGAUGUUGCCAAAAGGGUAAGGUGUCAAAAGACACCCUACCAGGUAGGUCGCUGUCCUAUCU | 83.9 | 93.2 | 84.6 | 87 | 83.4
AGAGUUAUGCGAGGAUAUGCGGUUAGUACUCAAAGAGUACUAACGCAGAGUGAUGUUCUGUGAAACACAGAAGGCGCAUAACUCA [Omei KL FMN B SS B v1] | 854 | 160 | 475 | 448 | 441
GGUGCUGUUUGUGCCGCCUUCCUCGUUCCUCGAGGACCGGUACGGCCGCCACUCGAGUGAUGUUUGGGUAGCGAUCCCUGCUAGC [Bdazzled - #14 Exc. Tryptophan A] | 470 | 538 | 1370 | 566 | 413
GAGCGGUGGAGGUUACCGCUAUUCUGAGAAGGAGCGCAGAAGACUGCAGGUAGGUCGCUUAGAGCUUGCAGUGAUGUUGCAAGUU [KL-SSArg-A13] | 173 | 122 | 141 | 160 | 127
AUUAAUUUCAGAGGAUAUGCUUAAUUGAUUUAUUAUUAUCUAUUAUGCAGUGAUGUUGCAUAUUUUGCAGAAGGCUGAUUUAUAA [JR_SSFMNB_Sub018] | 123 | 156 | 140 | 156 | 125
AAAUUCUUUUUUUUAUUUAACUUUUCAGAAGGAGCGUGGUAGUACACAGGUAGGUCGCUGAAUUUUGGGCUAGUGAUGUUAGUUA [whbob_SS_Arginine_A_sa113] | 221 | 217 | 258 | 311 | 193
CGUCUAUAGCAGGAUACCAGUACCCAUUAUGUACGUUUAUAGUAGAGUGAUGUUCUAAAGUACCCUUGGCAGCUUCCUGUGACCC [#24 K4 Theophylline B Exclusion] | 179 | 189 | 189 | 206 | 163
CCAUCGCUAUUCGAUACCAGCUCCUUAGUGAUGUUAAGGUUUUACCCACUGUAGGUGGGAAGCCCUUGGCAGCGAAUAGUGAUGG [Theophylline B K4 28] | 982 | 872 | 1150 | 538 | 1030
AAACAUCACUGGGAGUGAUGUUCUCAGUGACGAGGACCGGUACGGCCGCCACUCGCGAGAGAUAUAGUUAAGUAAUGACUGCAUU [Excl Tryptophan A V7] | 324 | 251 | 294 | 333 | 324
UGUCAUUGGUCGGCCGCCACUAGACGGAUCAUAAGAUCUGUCAAUAAGAGUGAUGUUCUAAAUAAUAGGACCGGGACCGAUGACU [TrypBS 27 #SwitchBubble #StaticStem] | 988 | 653 | 907 | 681 | 647
UGACUGGAUGGAAGGAGCGCUAAACUCCUAGUGAUGUUAGGGACACGAGACAAAGUCUUGAGGCAGGUAGGUCGCCAUCUAGUCU [FiskerMod 8 - Jieux - Same State - Arginine B] | 379 | 211 | 251 | 250 | 241
